Results published in PMC12103068.

Substrate: CC(=O)Oc1cccc2ccccc12
Test: purified protein
Type: biochemical, Aspergillus oryzae
Conditions: 50 mM sodium phosphate pH 8.0, 30 °C (general assay conditions)

B1: AoAxeB (Aspergillus oryzae RIB40) (protein)
chain: AGSAGCGQPLPPSQNPGGSSYGVNFTLSAGTQRFYRIHIPSNYNVNTPTPLIFSFHGRGKTAESQEKLSQFSNEDWNPDAIAVYPQGLNKEWQGDPHSKDVDDIAFTMEMLDYFQEKFCIDSTRVYAAGKSNGGGFTNLLACDPTASTRIAAFAPVSGAYYQDVSEEACHPTTVPIKCSPGRPSIPILEFHGTADKTIPYGGGGRRGECLPSIPHFVREWSKRLGYGLHNTTKELYDGNVQEYQYGNGDNRGIVTHYRIGGLGHDWPSVRPNSDNPNGTYLDATPIIVKFFKQWVLPGSSEDNQSEAR
- Km: 0.24 ± 0.12 mM
- kcat: 0.17 ± 0.03 s⁻¹
